Measurements reported in the supplement of paper PMC7877785.
± gives the uncertainty stated by the source.

Assay: self-splicing fitness, log relative to wild type (ln ratio); higher = more splicing; Tetrahymena group I intron in knt gene, E. coli kanamycin selection, DiMSum; sequences stand for … in CUCUCU…GGAGGGAAAAGUUAUCAGGCAUGCACCUGGUAGCUAGUCUUUAAACCAAUAGAUUGCAUCGGUUUAAAAGGCAAGACCGUCAAAUUGCGGGAAAGGGGUCAACAGCCGUUCAGUACCAAGUCUCAGGGGAAACUUUGAGAUGGCCUUGCAAAGGGUAUGGUAAUAAGCUGACGGACAUGGUCCUAACCACGCAGCCAAGUCCUAAGUCAACAGAUCUUCUGUUGAUAUGGAUGCAGUUCACAGACUAAAUGUCGGUCGGGGAAGAUGUAUUCUUCUCAUAAGAUAUAGUCGGACCUCUCCUUAAUGGGAGCUAGCGGAUGAAGUGAUGCAACACUGGAGCCGCUGGGAACUAAUUUGUAUGCGAAAGUAUAUUGAUUAGUUUUGGAGUACUCGUGGUCG
Method in brief: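 Library with all eight P1ex-region intron nucleotides randomised, intron inside the knt kanamycin-resistance gene on pET-22b(+), in E. coli BL21(DE3). Cells grew overnight at 37°C or 30°C on LB agar with or without 25 μg/mL kanamycin (plus 100 μg/mL carbenicillin, 50 μM IPTG, 0.2% rhamnose), in six replicate transformations. Pooled colonies were amplicon-sequenced on Illumina HiSeq 2500. DiMSum fitness is the error-weighted combination of wild-type-normalised replicate fold changes, kanamycin versus none.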

| Sequence | self-splicing fitness (ln) (37 °C) | self-splicing fitness (ln) (30 °C) |
| --- | --- | --- |
| CAAUAGCAAUAUUACGCAUC | -2.7 ± 0.35 |  |
| CAAUAGCAAUAUUACGCCGC | -2.72 ± 0.4 | -2.12 ± 0.22 |
| CAAUAGCAAUAUUACGCCGU | -1.4 ± 0.14 | -3.47 ± 0.15 |
| CAAUAGCAAUAUUACGCCUA | -1.74 ± 0.18 | -2.01 ± 0.22 |
| CAAUAGCAAUAUUACGCCUC | -2.17 ± 0.36 | -3.74 ± 0.48 |
| CAAUAGCAAUAUUACGCGAA | -1.67 ± 0.15 | -3.11 ± 0.21 |
| CAAUAGCAAUAUUACGCUGC | -1.92 ± 0.33 | -3.49 ± 0.28 |
| CAAUAGCAAUAUUACGCUGU | -2.07 ± 0.15 | -3.13 ± 0.17 |
| CAAUAGCAAUAUUACGCUUG | -2.01 ± 0.16 | -2.63 ± 0.14 |
| CAAUAGCAAUAUUACGGAAU | -3.11 ± 0.33 | -3.67 ± 0.35 |
| CAAUAGCAAUAUUACGGGUG | 0.0252 ± 0.091 | -0.693 ± 0.068 |
| CAAUAGCAAUAUUACGGUCA | -1.55 ± 0.12 | -3.09 ± 0.18 |
| CAAUAGCAAUAUUACGUAAG | 0.121 ± 0.062 | 0.0257 ± 0.049 |
| CAAUAGCAAUAUUACGUCCG | -0.267 ± 0.13 | -0.215 ± 0.1 |
| CAAUAGCAAUAUUACGUUGA | -3.59 ± 0.22 | -2.59 ± 0.15 |
| CAAUAGCAAUAUUACGUUGC | -3.05 ± 0.26 | -4.82 ± 0.42 |
| CACAAGCAAUAUUACGAAAA | -2.57 ± 0.24 | -3.15 ± 0.17 |
| CACAAGCAAUAUUACGACAG | 0.61 ± 0.083 | 0.0654 ± 0.065 |
| CACAAGCAAUAUUACGAGAU | -2.74 ± 0.12 | -3.28 ± 0.1 |
| CACAAGCAAUAUUACGAGCC | -2.17 ± 0.4 | -4.37 ± 0.42 |
| CACAAGCAAUAUUACGAGUC | -2.26 ± 0.16 | -3.71 ± 0.17 |
| CACAAGCAAUAUUACGAUGU | -1.99 ± 0.1 | -3.96 ± 0.16 |
| CACAAGCAAUAUUACGAUUA | -0.984 ± 0.12 | -2.43 ± 0.13 |
| CACAAGCAAUAUUACGCAGA | -1.43 ± 0.16 | -2.72 ± 0.2 |

| Sequence | self-splicing fitness (ln) (37 °C) | self-splicing fitness (ln) (30 °C) |
| --- | --- | --- |
| CACAAGCAAUAUUACGCAUA | -1.12 ± 0.11 | -3.87 ± 0.19 |
| CACAAGCAAUAUUACGCCAU | -3.48 ± 0.25 | -4 ± 0.23 |
| CACAAGCAAUAUUACGCCGA | -0.917 ± 0.15 | -3.39 ± 0.26 |
| CACAAGCAAUAUUACGCGCU | -2.33 ± 0.18 | -4.44 ± 0.27 |
| CACAAGCAAUAUUACGCUCG | -0.27 ± 0.092 | -0.562 ± 0.089 |
| CACAAGCAAUAUUACGCUUU | -2.81 ± 0.17 | -4.46 ± 0.24 |
| CACAAGCAAUAUUACGGAAA | -2.99 ± 0.2 | -3.04 ± 0.19 |
| CACAAGCAAUAUUACGGAGG | -0.826 ± 0.1 | -2.14 ± 0.089 |
| CACAAGCAAUAUUACGGCUC | -1.75 ± 0.16 | -2.56 ± 0.18 |
| CACAAGCAAUAUUACGGGGU | -3.18 ± 0.13 | -3.61 ± 0.11 |
| CACAAGCAAUAUUACGGUAG | -0.207 ± 0.059 | -0.991 ± 0.043 |
| CACAAGCAAUAUUACGGUCA | -0.612 ± 0.1 | -2.04 ± 0.1 |
| CACAAGCAAUAUUACGGUGA | -0.931 ± 0.085 | -3.09 ± 0.12 |
| CACAAGCAAUAUUACGGUGU | -2.07 ± 0.14 | -3.86 ± 0.14 |
| CACAAGCAAUAUUACGUAAA | -2.39 ± 0.23 | -3.74 ± 0.21 |
| CACAAGCAAUAUUACGUCAG | -0.508 ± 0.064 | -1.25 ± 0.051 |
| CACAAGCAAUAUUACGUGCA | -1.55 ± 0.093 | -2.56 ± 0.11 |
| CACAAGCAAUAUUACGUGCU | -2.79 ± 0.15 | -3.93 ± 0.18 |
| CACAAGCAAUAUUACGUGGC | -2.64 ± 0.27 | -3.15 ± 0.21 |
| CACAAGCAAUAUUACGUUAA | -2.28 ± 0.13 | -4.3 ± 0.27 |
| CACAAGCAAUAUUACGUUCA | -1.49 ± 0.089 | -1.31 ± 0.084 |
| CACAAGCAAUAUUACGUUCC | -2.42 ± 0.23 | -3.75 ± 0.19 |
| CACCAGCAAUAUUACGAAUG | 0.236 ± 0.058 | -0.784 ± 0.039 |
| CACCAGCAAUAUUACGACAC | -1.36 ± 0.22 | -3.07 ± 0.27 |

| Sequence | self-splicing fitness (ln) (37 °C) | self-splicing fitness (ln) (30 °C) |
| --- | --- | --- |
| CACCAGCAAUAUUACGACCG | 0.12 ± 0.089 | -0.000395 ± 0.066 |
| CACCAGCAAUAUUACGACUG | 0.144 ± 0.073 | -0.642 ± 0.054 |
| CACCAGCAAUAUUACGAGAC | -2.02 ± 0.32 |  |
| CACCAGCAAUAUUACGAUAC | -1.94 ± 0.19 | -3.58 ± 0.23 |
| CACCAGCAAUAUUACGCACC | -2.31 ± 0.34 | -3.63 ± 0.47 |
| CACCAGCAAUAUUACGCCGA | -1.86 ± 0.21 | -2.88 ± 0.19 |
| CACCAGCAAUAUUACGCCUG | -0.247 ± 0.097 | -1.11 ± 0.076 |
| CACCAGCAAUAUUACGCUCU | -1.48 ± 0.15 | -3.85 ± 0.2 |
| CACCAGCAAUAUUACGGACG | 0.374 ± 0.08 | -0.37 ± 0.058 |
| CACCAGCAAUAUUACGGAGA | -2.16 ± 0.14 | -1.66 ± 0.11 |
| CACCAGCAAUAUUACGGCAC | -1.09 ± 0.11 | -2.38 ± 0.12 |
| CACCAGCAAUAUUACGGUCC | -0.037 ± 0.11 | -0.606 ± 0.074 |
| CACCAGCAAUAUUACGGUUU | -0.0932 ± 0.065 | -0.79 ± 0.045 |
| CACCAGCAAUAUUACGUCAG | 0.0517 ± 0.067 | -0.342 ± 0.051 |
| CACCAGCAAUAUUACGUGAU | -3 ± 0.19 | -3.47 ± 0.12 |
| CACCAGCAAUAUUACGUUCU | -2.65 ± 0.14 | -3.76 ± 0.17 |
| CACGAGCAAUAUUACGAAAG | -2.22 ± 0.36 | -3.34 ± 0.3 |
| CACGAGCAAUAUUACGAAGA | -3.38 ± 0.27 | -2.89 ± 0.22 |
| CACGAGCAAUAUUACGACGA | -2.24 ± 0.26 | -3.66 ± 0.48 |
| CACGAGCAAUAUUACGAGAU | -3.09 ± 0.26 | -4.36 ± 0.32 |
| CACGAGCAAUAUUACGAGCA | -3.46 ± 0.4 | -4.24 ± 0.39 |
| CACGAGCAAUAUUACGAGGU | -3.23 ± 0.28 | -4.07 ± 0.28 |
| CACGAGCAAUAUUACGCCCU |  | -2.92 ± 0.3 |
| CACGAGCAAUAUUACGCGAG | -2.5 ± 0.26 | -1.52 ± 0.17 |

| Sequence | self-splicing fitness (ln) (37 °C) | self-splicing fitness (ln) (30 °C) |
| --- | --- | --- |
| CACGAGCAAUAUUACGCGUU | -2.1 ± 0.18 | -4.28 ± 0.47 |
| CACGAGCAAUAUUACGCUGU | -3.31 ± 0.18 | -3.55 ± 0.18 |
| CACGAGCAAUAUUACGGAAA | -1.8 ± 0.19 | -2.33 ± 0.22 |
| CACGAGCAAUAUUACGGCCU | -3.06 ± 0.3 | -4.34 ± 0.36 |
| CACGAGCAAUAUUACGGCGG | -1.14 ± 0.11 | -2.37 ± 0.092 |
| CACGAGCAAUAUUACGGGCC | -2.24 ± 0.31 | -3.08 ± 0.38 |
| CACGAGCAAUAUUACGGGGC | -2.42 ± 0.19 | -3.02 ± 0.14 |
| CACGAGCAAUAUUACGGGGU | -2.67 ± 0.16 | -4.09 ± 0.23 |
| CACGAGCAAUAUUACGGGUC | -1.99 ± 0.15 | -4.31 ± 0.26 |
| CACGAGCAAUAUUACGGUAC | -2.81 ± 0.3 | -2.69 ± 0.21 |
| CACGAGCAAUAUUACGUACG | -0.807 ± 0.15 | -2.38 ± 0.14 |
| CACGAGCAAUAUUACGUCCU | -2.81 ± 0.29 | -3.93 ± 0.3 |
| CACGAGCAAUAUUACGUGAA | -2.49 ± 0.12 | -3.63 ± 0.14 |
| CACGAGCAAUAUUACGUUAG | -2.64 ± 0.18 | -2.94 ± 0.16 |
| CACGAGCAAUAUUACGUUCG | -2.75 ± 0.21 | -4.18 ± 0.29 |
| CACUAGCAAUAUUACGAACA | -2.83 ± 0.3 | -3.04 ± 0.42 |
| CACUAGCAAUAUUACGAAUC | -2.58 ± 0.22 | -3.91 ± 0.19 |
| CACUAGCAAUAUUACGAGGU | -2.6 ± 0.23 | -5.22 ± 0.45 |
| CACUAGCAAUAUUACGAGUU | -0.633 ± 0.093 | -1.83 ± 0.085 |
| CACUAGCAAUAUUACGAUAG | -0.493 ± 0.11 | -0.974 ± 0.1 |
| CACUAGCAAUAUUACGAUCC | -1.91 ± 0.34 | -2.56 ± 0.33 |
| CACUAGCAAUAUUACGAUGC | -3.05 ± 0.19 | -3.76 ± 0.18 |
| CACUAGCAAUAUUACGAUGG | -0.324 ± 0.084 | -0.786 ± 0.062 |
| CACUAGCAAUAUUACGCAGC | -2.28 ± 0.37 | -3.17 ± 0.31 |
